According to US20220227882A1 (TRUSTEES OF TUFTS COLLEGE, published 2022):

Tests used:
[1] = biological target: T1, Recombinant human ADAM8 (rHuADAM8) ectodomain protein (aa 17-497), ACRO Biosystems AD8-H5223 (human, UniProt P78325 17-497); experiment: Biacore SPR, rHuADAM8 as analyte
T1 construct: Bought protein made in HEK293 cells; The protein clips off its own prodomain (aa 17-191); also called rhADAM8; immunogen
T1 sequence: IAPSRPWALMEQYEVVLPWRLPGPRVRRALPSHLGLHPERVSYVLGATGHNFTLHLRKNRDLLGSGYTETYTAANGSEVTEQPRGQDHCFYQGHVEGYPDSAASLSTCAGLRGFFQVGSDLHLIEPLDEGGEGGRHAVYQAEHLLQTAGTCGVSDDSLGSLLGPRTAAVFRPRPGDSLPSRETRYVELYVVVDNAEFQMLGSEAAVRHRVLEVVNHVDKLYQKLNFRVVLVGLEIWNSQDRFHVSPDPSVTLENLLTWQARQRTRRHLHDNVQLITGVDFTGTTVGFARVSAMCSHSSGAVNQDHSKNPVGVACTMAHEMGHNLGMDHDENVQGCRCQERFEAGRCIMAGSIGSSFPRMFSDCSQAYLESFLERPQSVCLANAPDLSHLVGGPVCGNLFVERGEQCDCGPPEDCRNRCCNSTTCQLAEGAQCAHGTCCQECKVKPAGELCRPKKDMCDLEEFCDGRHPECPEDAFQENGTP
Procedure: For Biacore assays, each ADP was used as the ligand in a multiple cycle kinetics method performed on a Biacore™ T200 surface plasmon resonance system (GE Healthcare Life Sciences) machine. ADP proteins were captured using anti-mouse Fc IgG attached to a dextran matrix, and rHuADAM8 (Acro Biosystems, AD8-H5223) added as the analyte at concentrations ranging from 3.75 nM to 200 nM. HBS-EP+ (10 mM HEPES, 0.15 M NaCl, 3 mM EDTA, 0.05% Surfactant P20) running buffer was passed at a flow rate of 30 μl/min and antigen injected at 30 μl/min. The association and dissociation phases were carried out for 180 s and 600 s, respectively. Surface regeneration was performed for 30 s at 30 μl/min of Glycine pH 1.5. Values for association rate constant (kₐ), dissociation rate constant (kd) and equilibrium dissociation constant (KD) were calculated through the Biacore™ T200 Software.

[2] = biological target: T2, Recombinant human ADAM12 (Acro Biosystems, AD2-H5228) (human, UniProt O43184 208-708); experiment: ELISA, coated recombinant ADAM12
T2 sequence (looked up): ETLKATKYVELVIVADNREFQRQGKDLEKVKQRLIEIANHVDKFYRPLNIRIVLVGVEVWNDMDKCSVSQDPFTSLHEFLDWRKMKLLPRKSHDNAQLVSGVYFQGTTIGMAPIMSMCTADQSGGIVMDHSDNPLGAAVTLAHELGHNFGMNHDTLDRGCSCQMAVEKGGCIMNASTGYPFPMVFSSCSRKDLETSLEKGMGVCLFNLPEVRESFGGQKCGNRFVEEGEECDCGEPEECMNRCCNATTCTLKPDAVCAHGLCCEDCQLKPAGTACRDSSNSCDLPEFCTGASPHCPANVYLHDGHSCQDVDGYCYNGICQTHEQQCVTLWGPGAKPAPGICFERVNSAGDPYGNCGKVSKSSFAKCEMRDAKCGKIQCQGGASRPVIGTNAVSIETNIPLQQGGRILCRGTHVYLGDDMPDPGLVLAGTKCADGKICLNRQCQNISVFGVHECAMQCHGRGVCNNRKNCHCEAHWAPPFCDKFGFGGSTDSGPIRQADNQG

[3] = biological target: T3, Full-length human ADAM8 on cells (HEK293-ADAM8 stable or transfected cells); also endogenous ADAM8 of breast … (human, UniProt P78325 17-824); experiment: FACS, HEK293-ADAM8 cells, antibody 1 µg/ml
T3 construct: On cells the proform, the active form and the remnant form can all be present; also called native ADAM8; HEK293-A8
T3 sequence: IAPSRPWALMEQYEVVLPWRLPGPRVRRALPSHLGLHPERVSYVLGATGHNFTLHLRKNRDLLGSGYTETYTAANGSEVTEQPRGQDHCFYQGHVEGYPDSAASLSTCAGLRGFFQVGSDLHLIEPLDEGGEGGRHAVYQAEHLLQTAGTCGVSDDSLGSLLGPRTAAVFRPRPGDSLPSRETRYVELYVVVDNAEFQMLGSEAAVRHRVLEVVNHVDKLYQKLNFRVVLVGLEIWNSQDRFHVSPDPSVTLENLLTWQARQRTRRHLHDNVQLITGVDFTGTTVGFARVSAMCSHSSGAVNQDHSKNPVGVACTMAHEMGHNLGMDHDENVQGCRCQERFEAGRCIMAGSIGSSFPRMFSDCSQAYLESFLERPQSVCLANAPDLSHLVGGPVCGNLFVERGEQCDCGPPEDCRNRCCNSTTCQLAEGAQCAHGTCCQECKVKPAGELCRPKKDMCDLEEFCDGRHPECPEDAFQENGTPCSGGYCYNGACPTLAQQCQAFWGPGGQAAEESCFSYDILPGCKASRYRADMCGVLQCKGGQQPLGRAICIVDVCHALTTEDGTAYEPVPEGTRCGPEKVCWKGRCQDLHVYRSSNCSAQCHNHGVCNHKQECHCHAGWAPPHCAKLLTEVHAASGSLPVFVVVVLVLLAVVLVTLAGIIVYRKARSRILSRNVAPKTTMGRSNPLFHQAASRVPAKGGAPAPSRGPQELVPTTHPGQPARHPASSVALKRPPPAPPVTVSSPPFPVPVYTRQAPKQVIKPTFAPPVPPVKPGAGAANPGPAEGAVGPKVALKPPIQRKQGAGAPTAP

[4] = biological target: T3, Full-length human ADAM8 on cells …; experiment: FACS, HEK293-ADAM8 cells, antibody 10 µg/ml
[5] = biological target: T3, Full-length human ADAM8 on cells …; experiment: FACS, HEK293-ADAM8 cells, antibody 0.1 µg/ml

B1: ADP2 (antibody, V domains shown)
VH: EVKLVESGGGLVQPGGSLSLSCAASGFSFPDYYMSWVRQPPGKALEWLGFIRDSANGYTTEYIASVKGRFTFSRDNSQSILYLQMNALRAEDSATYYCARYSRYYGMDYWGQGTSVTVSS
VL: SIVMTQTPKILLVSAGDRVTITCKASQTVNYDVAWYQQKPGQSPKPVIYFASNRYTGVPDRFTGSGFGTDFTFTISTVQAEDLAVYFCQQDYSAPWTFGGGTKLEIK
notes: also called mADP2; mouse ADP2
[1]
  Kd: 3.34 nM
[2]
  OD 450nm: 0.14 OD450nm
  binding result: no binding (tested: 1 µg/ml)
[3]
  MFI: 156 MFI
[4]
  MFI: 158 MFI
[5]
  MFI: 58.4 MFI

B2: ADP3 (antibody, IgG1, V domains shown)
VH: EVKLEESGGGLVQPGGSMKLSCAASGFTFSDAWMDWVRQSPEKGLEWVAEIRGKVNNLATYYVESVKGRFTISRDDSKSSVYLQMNSLRAEDTGIYYCLGRYDATYAMDYWGQGTSVTVSS
VL: DVVMTQTPLSLPVSLGDQASISCRSSQSLVHSDGNTYLHWYLQKPGQSPKLLIYKLSNRFSGVPDRFSGSGSGTDFTLKISRVEAEDLGVYFCSQSTHVPWTFGGGTKLEIK
[1]
  Kd: 18.3 nM
[2]
  OD 450nm: 0.16 OD450nm
[3]
  MFI: 96.5 MFI
[4]
  MFI: 86.9 MFI
[5]
  MFI: 51.8 MFI

B3: ADP13 (antibody, IgG1, V domains shown)
VH: EVQLQQSGPEMVKPGTSVKISCKASGYTFTDYYINWVKQSHGKSLEWIGDISPNIGGATYNPKFKGKAILTVDKSARTAYMELRSLTSEDSAVYCCTRGGSSYPYFYAMDYWGQGTSVTVSS
VL: DIVMSQSPSSLAVSVGEKVTMSCKSSQSLLYSSNQKKYLAWYQQKPGQSPKLLIYWASTRESGVPDRFTGSGSGTDFTLTISSVKAEDLAVYYCQQFYSYPYTFGGGTKLEINR
notes: also called mADP13; mouse ADP13
[1]
  Kd: 1.3 nM
[2]
  OD 450nm: 0.12 OD450nm
  binding result: no binding (tested: 1 µg/ml)
[3]
  MFI: 21.1 MFI
[4]
  MFI: 62.2 MFI
[5]
  MFI: 7.1 MFI
